Values of other authors in publication doi:10.1101/390104.

Legend:
Assay in all cases: NMR
Conditions in all cases: folded inactive HdeA dimer, client-free (inferred from context); cited from earlier work
Glu46 = Glu46 (UniProt position 67, NKDKPEDAVLD)
Asp47 = Asp47 (UniProt position 68, KDKPEDAVLDV)
Asp51 = Asp51 (UniProt position 72, EDAVLDVQGIA)

In the case of “Acid stress chaperone HdeA (wild type) (Escherichia coli)”, the pKa (Glu46) is given as 4.07, the pKa (Asp47) is given as 4.14 and the pKa (Asp51) is given as 3.83.
